Source: publication PMC7398163

Target: FLAG-YAP tagged with a nuclear exclusion sequence (NES) (human) (UniProt P46937)
Assay: co-IP

fold association relative to WT YAP: 2 fold
Substance: IQGAP1 (from UniProt Q9JKF1 1-1657) (natural protein)
